Data as given in patent US20230279055A1 (University of Washington, published 2023).

Key:
[1] = target: the molecule itself; assay: SEC-MALS, oligomeric state of the dominant species (D = dimer)
Method: (§1) FIG. 14. […] Samples were prepared in 20 mM Tris·HCl, 150 mM sodium chloride, pH 7.5.
(§2) To ascertain the oligomerisation state of dIG proteins, SEC-MALS was performed in a Dawn Helios™ II apparatus (Wyatt Technologies) coupled to a SEC Superdex™ 75 Increase 10/300 column. The column was equilibrated with PBS or buffer B at 25° C. and operated at a flow rate of 0.5 mL/min. A total volume of 100-165 μL of protein solution at 1-3.0 mg/mL was employed for each sample. Data processing and analysis proceeded with Astra 7 software (Wyatt Technologies), for which a typical dn/dc value for proteins (0.185 mL/g) was assumed.

[2] = target: the molecule itself; assay: SEC-MALS, self-association, PBS buffer
Method: FIG. 13. […] All experiments were carried out with PBS buffer.
as §2

[3] = target: the molecule itself; assay: SEC-MALS, oligomeric state of the dominant species (M = monomer, D = dimer)
Method: FIG. 12. Biochemical characterization of the dIG8 design. a, Far-ultraviolet circular dichroism spectra (25° C., 95° C.). b, Thermal denaturation monitored at 220 nm by circular dichroism. The design denatures at temperatures above 95° C. c, SEC-MALS analysis. The protein is monodispersed and has an estimated molecular weight of 16.6 kDa, which lies between that corresponding to the theoretical monomer (10.3 kDa) and dimer (20.6 kDa). The protein includes the thrombin cleavage site and the hexa-histidine purification tag, which adds 2.3 kDa to the design. d, Chemical denaturation with guanidine hydrochloride monitored at 220 nm by circular dichroism. […] All experiments were carried out with PBS buffer.
as §1, §2

[4] = target: the molecule itself; assay: SEC-MALS, self-association

Row | Protein | binding result [1] | also measured
1 | dIG22 (other, De novo designed immunoglobulin-like domain; not shown: N-terminal thrombin-cleavable His6-tag encoded by pET-28b+) SIEVRVKGDRYEFRNNSDKPATLEVEKNGKREEYHMNPGESVEVRGPPGQDIRFEMTMDGTTYRYRLS | binds | –
2 | dIG21 (other, De novo designed immunoglobulin-like domain; not shown: N-terminal thrombin-cleavable His6-tag encoded by pET-28b+) SIEVRVKGDRYEFRNNSDKPATLEVEKNGKREEYHMNPGESVEVRGEPGQDIRFEMVMEGTTYRYRLS | – | binding result [2]: no binding
3 | dIG7 (other, De novo designed immunoglobulin-like domain; not shown: N-terminal thrombin-cleavable His6-tag encoded by pET-28b+) RMEVRVSNGRVEIENKSSQPGRVEVRFNGKRYEYTANPGERVEVEVSPEELKNLRVRLEYDGKTEETQYS | binds | –
4 | dIG8 (other, De novo designed immunoglobulin-like domain; also called parental dIG8; not shown: N-terminal hexa-histidine tag and thrombin cleavage site from pET-28b+ (adds 2.3 kDa)) RIEVRVDNGRVRVRNGTDRPVRVRVTAGGETREYTVNPGTELEVELSPEQQNNAEVEVEVGNEKYRFQLG | – | binding result [3]: binds
5 | dIG23 (other, De novo designed immunoglobulin-like domain; not shown: N-terminal thrombin-cleavable His6-tag encoded by pET-28b+) DLEVRRKDGKFEFRNNSDKPATLEVEKDGQREEYRMNPGETIEVQAPPGQDVRFTVEMPGREYRYKLD | binds | –
6 | dIG15 (other, De novo designed immunoglobulin-like domain; not shown: N-terminal thrombin-cleavable His6-tag encoded by pET-28b+) RPKVQLELHGNKMRVRLRNDSSTPVEVHIKVGDEKRTVTVNPGEEVEVTFSTTDPRELKNATIQLHQGDQTVEYRVD | binds | –
7 | dIG8-CC (other, C21 and C60 found both disulfide-linked and unbound in the crystals, De novo designed immunoglobulin-like domain, double mutant of dIG8; Built as the untagged crystallization construct; also called dIG8-CC (V21C, V60C)) GHMRIEVRVDNGRVRVRNGTDRPCRVRVTAGGETREYTVNPGTELEVELSPEQQNNAEVEVECGNEKYRFQLG | – | binding result [3]: binds
8 | dIG14-scdim (other, Two 6-stranded dIG14 domains (X1-X13) fused by a diglycine linker; also called single-chain dimer; dIG14-scdim designed with a GG linker) GRVEVRVEFEGDKMRVRLRNDSSTPVEVHIKVGDEKRTVTVNPGEEVEVTFSANDPHKFNRPQFTIEWGGGGRVEVRVEFEGDKMRVRLRNDSSTPVEVHIKVGDEKRTVTVNPGEEVEVTFSANDPHKFNRPQFTIEWG | – | binding result [4]: no binding
9 | dIG14 (other, De novo designed immunoglobulin-like domain; Built here as the crystallization construct (pET28*-dIG14); it may instead be the pET-28b+ form with an N-terminal thrombin-cleavable His6-tag; also called designed ImmunoGlobulin 14) MGRVEVRVEFEGDKMRVRLRNDSSTPVEVHIKVGDEKRTVTVNPGEEVEVTFSANDPHKFNRPQFTIEWGGQRQHFQHHHHHH | binds | –
